Common to all, as to experiment: AUC
The target of test [1] is EGFP (Aequorea victoria).
Test [2] has as its target EGFP (Aequorea victoria). This is another data set of the same source.
Test [3] deals with EYFP (Aequorea victoria).
Test [4] deals with EYFP (Aequorea victoria). The source holds these as a separate data set.

Like-named read-outs stand apart in the source and are kept apart here.

Take EGFP: the stoichiometry N with EGFP (Aequorea victoria) [1] and with EGFP (Aequorea victoria) [2] was 2 in each case.

In the case of EYFP, the stoichiometry N with EYFP (Aequorea victoria) [3] and in the test with EYFP (Aequorea victoria) [4] was 2 in each case.

In general, stoichiometry N refers to a count of units in the complex or per binding partner.

Values taken from publication doi:10.1101/2024.10.04.616694.
